Assay results: the DeepSol protein solubility set

Test: soluble on expression in E. coli; label from the status in PepcDB or PDB records

| Sequence | soluble on expression in E. coli |
| --- | --- |
| MNLLETVEQDTMPTHYKQMTQVEMIARVTEIKAQLGENLFIPCHHYQKDEVVPFADAIGDSLQLAQIAAQNKKAKHIVFCGVHFMAETADMLTTSEQIVTLPDMRAGCSMADMADIHQLTNAWPKLQTLFGDTILPVTYINSTAAIKSFVGEHGGTTVTSSNATKIVSWALEQKERIFFLPDQHLGRNTAFELGIPLEHMAIWNPIKNELEYEGNLDDCKVILWKGYCSVHQHFTVKNIENIRKNHPNMRIIVHPECTHEVVSLADDSGSTKKIVTEINNAAPGTEWAVGTEANLVGRIIQENPDKKIVSLNPFMCPCMTMNRIDLPHLLWTLEAIQNGEKRNQIKVDEQTTKFALKALERMLQLS | not soluble |
| MHMEDFIQFFSGSNLSIDKANFDQFGLKAKIKHYQKGQLLITQGQPAPKLFFLIKGMVRYMSVSATGKEFTQSFAFAPGISGSTRAMTRNANALFSIEALDDVICLEFEWHVFFDQMQSQPGFLAAYNRLLENMFIKKEEREFAFVQQSAEQRYLTFLDMNPQLRDKISLKMIASHIGITPIALSRIRNKLK | not soluble |
| MALNVIKISRVSLVTNSVEPLVLPLTFFDLLWLKLNPIERVTFYKLTESSRDSFFSSILPKLEQSLSLVLSHFLPLSGHLKWNPQDPKPHIVIFPKDTVSLTVVESEADFSYISSKELRLETELRPLVPELQVSSDSASLLSLQITLFPNQGFSIGTTVHHVVMDGKTASKFHKSWAHICKHGTTPQDFDLPTVLDRTVINVPAGLEQKIFQLSSYISEEKDYARTLTLPPAKEIDNDVVRVTLELTEVDIEKLKERAKNESTRSDLHLSTFVVSYAYVLTCMVKSCGGDANRPVRFMYAADFRNRLDPPVPLTYFGNCVLPIDFNGYKATTFLGKDGYVNGVEILSDSVRGLGSRNIESIWEVYEDGTKNMKLDTQNVTVTGSNQFGIYGSDFGWGRPVKTDVMSLYKNNEFSMSARRDEIGGLEIGISLKKCEMNVFLSLFTSDFDIYK | soluble |
| GSMEQFELFSIDKFKCNSEAKYYLNIIEGEWHPQDLNDSPLKFILSTSDDSDYICKYINTEHKQLTLYNKNNSSIVIEIFIPNDNKILLTIMNTEALGTSPRMTFIKHK | soluble |
| MSLGQKVRGNLIIIGGAEDKVGKKTILKYVADIVREKKGSLVILTTATQKPQEVGNNYRQVFETLGLMDIDVLNINSRDEADLDENAERIRSSGGIFFTGGDQLRITSILGGTKVYKALHEVYSKGVVIVGTSAGASVMSNTMIVEGKDNEPARKCTMKMAPGLGFLEEAIIDQHFDQRGRIGRLLCGVAENPFMLGIGIDEDTAIRVYPDAHFEVLGSNAVTVIDGSTIKSTNVSELNPDEILAISGVTLHVLPCGYGFDMKKKRSEGHHHHHH | soluble |
| MGSDKIHHHHHHMTTKYQTIISNIEQDIQKQRLKKGDKLPSIRVLSKVYYCSKDTVQRALLELKYRHLIYAVPKSGYYVLGNVSMPDNVLNLSLEDYNNMAYEDFRLCLNEALSAKDKYLFHYYHKTEGLEELREALLLYLAENSVYSNKDQLLITSGTQQALYILSQMPFPNTGKTILLEKPTYHRMEAIVAQLGLPYQTISRHFNGLDLELLESLFQTGDIKFFYTISRFSHPLGLSYSTKEKEAIVRLAQRYQVYILEDDYLGDFVKLKEPPIHYYDTHHRIIYLKSFSMSVFPALRIGALVLPSGLKPHFLTQKSLIDLDTNLLMQKALALYLENGMFQKNLRFIKRYLKQRERQLALFLKQNCPDIHYQLTPTHLVIDYTTSDSYRNFTLDKSDRIIITGKKRYLSITINQQIQSKLNSLIKNTCGKSN | not soluble |
| MQSLDPLFARLSRSKFRSRFRLGMKERQYCLEKGAPVIEQHAADFVAKRLAPALPANDGKQTPMRGHPVFIAQHATATCCRGCLAKWHNIPQGVSLSEEQQRYIVAVIYHWLVVQMNQP | soluble |
| MTTKPPIERIMYIELRTSLEMFRSDLVDLEALANAAKEALEQLPYIPKNPCGKGEDDDPLSGPESALRTGRLCGLVCCTATAAEGALSTCSKLIDWAYANEPEGVDDAVLADDIDGDDDDDDEGSGSNGANGGGGANGSGNGSNGSGNGGPPDGGVESAAPAGSTELAEARPSRGGIALDLPPAHAPHGAPVA | not soluble |
| MNWKQEFSRWLSYAELDAELKEQLENMKQDEKKIEDSFYKNLEFGTGGMRGELGAGTNRLNVYTVRKATQGLAKFIEKLGEEAKKRGVVVAYDSRHKSPEFAMEVAATLGAHGITTYVFESLRPTPVLSFAVRHLHTVSGIVLTASHNPPEYNGYKVYGEDGGQLPPKEADELISYVNAVEDELTVEVADVEQLKADGLLHMIGQEVDDAYAAELNNVIINKEMVQKVGKDLKIVFTPLHGTSNLSVRRGLAEVGFTDVTVVKEQELPDPNFSTVKSPNPEEHAAFEYAIRDGEKVGADVLIATDPDADRLGVAVRNHDGEFQVLTGNQTGALMLDYLLSQKKENGTLPENGVVLKTIVTSEIGRTIAKAYGLDTVDTLTGFKFIGEKIKQYEESGQYEFQFGYEESYGYLIRPFCRDKDAVQSVLFACEVAAYYKSQGKTLYDGLLEVFEKYGFFREDLVSLTLKGKDGAEQIQEMMATFRENPPKEVAGLTVVAVEDYKASIITSLQDGHKEEIHLPKSNVLKYQLEDGSWFCLRPSGTEPKIKFYFGVQDNSLQNSEQKLLTIKEDIMNRL | not soluble |
| MGSDKIHHHHHHMFVWHEYENAAEAAQSLADAVADALQGALDEKGGAVLAVSGGRSPIAFFNALSQKDLDWKNVGITLADERIVPTNHADSNTGLVREYLLKNKAAAAVWIPMVEDGKTETELHPDAVVDYALKHYKQPDVLILGMGNDGHTASIFPKAPQFQTAIDGSAGVALVHTTPVTAPHERISMTLDAIAHTGHVFLAIQGEEKKAVFDQAAQGENREYPISLVLNHQGVNCHVFYAE | not soluble |
| MISIIYLFIPILLASAVPTSDVLSTRIKALEQVFIVFYCKPSCRFNETQLNSVTIKSFPKCKEVCGIIFIDSETDLTVEQMKKAFEKMRTLKGGFNIENTSLTSLSVFTADKEKGNFNVVGVGNSAAAMTSTKLLAERLKQKNGVYIRNNSQLNDPSVLYDLYLYRDRGIEACDIRIENNPKLEFSCDGGFLHMYNELIVRGNLKDCGCDGEKVNVSNVKEYSKCKTLDSGLNLVNINATFDYDSFLNVTMIRGSIAIRNTNLQSLSFLQNLQTIEYNSDIASVALNVQDNPEMIRLGLPILTKVIDTVEQTSMIQYSTYNKRQYFNFENLHPDFCVTITEIVALLNLGISTENIEAKLCKDPGPLDASFYCTFESMSKLSDTCMYILGDLLIDHEDEKYVSKLGVLQFLFGTLTIRNTNLTDLNFLDQMTYIGALNGNVTYFPVIQIYSNPNLRNVGLNGIMNIITKGNRTAIIQDNHPDLFKSTPCQLFGAYFSNPAMENRVNLTYIGSNCGERVHITSSQSGRISIGLSFSLFVLFWSFKSN | not soluble |
| MSVQLKCDAVNCVYNRSHLCSAEEIEVQGGETTGGDATFCGTFSSKSLGNFVSSLGNMNYSGSLKQAVSAEPIMDPKVHCNAVNCTYNDQRYCHADQVEIRNEVSHTAEETECQTFYPKMSLEHHHHHH | not soluble |
| MSLARLQFQLKVDGLEDESLVVRGFEGQESLSDSVWRCEPCYGFRYQVDLASALSNLTAEQFVDQTAHLTILRDGQVVQQINGIVRQLSKGDTGHRHTFYSLTLVPALERLSLRSNSRIFQQQSVPEIISILLQEMGIEDYAFALKRECAQREFCVQYRETDLQFLHRIAAEEGLVYSHLHEAQKHTLLFTDSSDSQPKLAKPVPYNALAGGEINLPYVVDLQFKTTAQVSHTELKDYSFKKPAYGFTQRTQGKDIAYQQPNYEHFDAPGRYKDDANGKAFSQIRLEYLRRDALLADAKSDEPLLLAGVRFDLQDHLDHAMNRDWLVVQANHQGTQPQALQEEGGSGATTYSNQLKLIPAHITWRARPCAKPQVDGPMIATVVGPQGEEIYCDNFGRVKVHFPWDRYSSSNEKSSCWVRVAQEWAGSQYGSMAIPRVGHEVIVSFLNGDPDQPIITGRTYHATNTAPYALPDHKTKTVLRTETHQGQGYNELSFEDQAGSEQILLHAQKDWDALIEHDHTEVIRHDQHLTVDNDRFTRIQRNQHLTVEGEVRSKIALDSSHEVGASLQHKVGQRIAVEAGKEISLKSGAKIVVEAGAELTLKAGGSFVKVDAGGVHLVGPAINLNAGGSAGSGSAYGGQLAAAPRMLAQAKPVAELVQPDIAASMQSGAARVIDVASLPTMMPSSANNTANDEPVAEEKTPERILKSDLLKPSDELEKLAKRQASAYRQGNHSDEVKLLQEALIKLGFDLGKAGADGDFGSKTKTAIEQFQKSYQPSHQTHPSYSIGAVDGIVGKGTLLALDEALMDGWVYENNIYQIWPLGKTSEKYESAGRGPGVISTGNGDYGGASYGCYQMSSNLGVVQKYIQSSKFKEFFSGLNPATKEFNVVWQDIASRYPQEFREEQHQFIKRTHYDIQIGHLRGKGLLFEHNRAAVHDLIWSTSVQFGGRTNLIFNALNGQNMESMTDKDIIILVQDYKLVNTERLFKSSPSWWSDLKKRAVSEKKALLELEIDGLEVDIKEGGSHHHHHH | not soluble |
| MRGLSRRVQAMKPDAVVAVNAKALELRRQGVDLVALTAGEPDFDTPEHVKEAARRALAQGKTKYAPPAGIPELREALAEKFRRENGLSVTPEETIVTVGGSQALFNLFQAILDPGDEVIVLSPYWVSYPEMVRFAGGVVVEVETLPEEGFVPDPERVRRAITPRTKALVVNSPNNPTGAVYPKEVLEALARLAVEHDFYLVSDEIYEHLLYEGEHFSPGRVAPEHTLTVNGAAKAFAMTGWRIGYACGPKEVIKAMASVSRQSTTSPDTIAQWATLEALTNQEASRAFVEMAREAYRRRRDLLLEGLTALGLKAVRPSGAFYVLMDTSPIAPDEVRAAERLLEAGVAVVPGTDFAAFGHVRLSYATSEENLRKALERFARVLGRA | soluble |
| MEVKELERDKNRVVLEYVFGAEEIAQAEDKAVRYLNQRVEIPGFRKGRIPKNVLKMKLGEEFQEYTLDFLMDLIPDTLKDRKLILSPIVTERELKDVTARVVVEVHEEPEVRIGDISKIEVEKVDEEKVLEKYVERRIEDLRESHALLEPKEGPAEAGDLVRVNMEVYNEEGKKLTSREYEYVISEDEDRPFVKDLVGKKKGDVVEIEREYEGKKYTYKLEVEEVYKRTLPEIGDELAKSVNNEFETLEQLKESLKKEGKEIYDVEMKESMREQLLEKLPEIVEIEISDRTLEILVNEAINRLKREGRYEQIVSSYESEEKFREELKERILDDIKRDRVIEVLAQEKGISVNDEELEKEAEELAPFWGISPDRAKSLVKARQDLREELRWAILKRKVLDLLLQEVKVKVVEPKGEGDDSEGKEDNLEHHHHHH | soluble |
| MGHHHHHHSHMDLDSGDVKRRVHLFETQRRTKEEDPIIPFSDGPIISKWGAISRSSRTGYHTTDPVQATASQGSATKPISVSDYVPYVNAVDSRWSSYGNEATSSAHYVERDRFIVTDLSGHRKHSSTGDLLSLELQQAKSNSLLLQREANALAMQQKWNSLDEGRHLTLNLLSKEIELRNGEVKKLNLSASCLMYLFSAAASWLYHY | not soluble |
| MATHVAIIGNGVGGFTTAQALRAEGFEGRISLIGDEPHLPYDRPSLSKAVLDGSLERPPILAEADWYGEARIDMLTGPEVTALDVQTRTISLDDGTTLSADAIVIATGSRARTMALPGSQLPGVVTLRTYGDVQVLRDSWTSATRLLIVGGGLIGCEVATTARKLGLSVTILEAGDELLVRVLGRRIGAWLRGLLTELGVQVELGTGVVGFSGEGQLEQVMASDGRSFVADSALICVGAEPADQLARQAGLACDRGVIVDHCGATLAKGVFAVGDVASWPLRAGGRRSLETYMNAQRQAAAVAAAILGKNVSAPQLPVSWTEIAGHRMQMAGDIEGPGDFVSRGMPGSGAALLFRLQERRIQAVVAVDAPRDFALATRLVEARAAIEPARLADLSNSMRDFVRANEGDLT | soluble |
